Data reported in patent US20110104713A1, “PRODUCTS AND PROCESSES FOR MODULATING PEPTIDE-PEPTIDE BINDING DOMAIN INTERACTIONS” (priority 2002, published 2011).
Non-standard residues stand in square brackets, D forms with d. No end group written: not given here. pT = C[C@@H](OP(=O)(O)O)[C@H](N)C(=O)O

T1: BRCTtide-7pS, GAAYDI-pS-… (Artificial Sequence)
T1 sequence (peptide, phosphoserine (pS) at position 7): GAAYDISQVFPFAKKK

T2: BRCTtide-7pT, GAAYDI-pT-… (Artificial Sequence)
T2 sequence (peptide, phosphothreonine (pT) at position 7): GAAYDITQVFPFAKKK

B1: GST-hPlk2 PBD (human Plk2 residues 355-685) (protein)
chain: HLSSPAKNFFKKAAAALFGGKKDKARYIDTHNRVSKEDEDIYKLRHDLKKTSITQQPSKHRTDEELQPPTTTVARSGTPAVENKQQIGDAIRMIVRGTLGSCSSSSECLEDSTMGSVADTVARVLRGCLENMPEADCIPKEQLSTSFQWVTKWVDYSNKYGFGYQLSDHTVGVLFNNGAHMSLLPDKKTVHYYAELGQCSVFPATDAPEQFISQVTVLKYFSHYMEENLMDGGDLPSVTDIRRPRLYLLQWLKSDKALMMLFNDGTFQVNFYHDHTKIIICSQNEEYLLTYINEDRISTTFRLTTLLMSGCSSELKNRMEYALNMLLQRCN
B2: GST-hPlk3 PBD (human Plk3 residues 335-646) (protein)
chain: TPPNPARSLFAKVTKSLFGRKKKSKNHAQERDEVSGLVSGLMRTSVGHQDARPEAPAASGPAPVSLVETAPEDSSPRGTLASSGDGFEEGLTVATVVESALCALRNCIAFMPPAEQNPAPLAQPEPLVWVSKWVDYSNKFGFGYQLSSRRVAVLFNDGTHMALSANRKTVHYNPTSTKHFSFSVGAVPRALQPQLGILRYFASYMEQHLMKGGDLPSVEEVEVPAPPLLLQWVKTDQALLMLFSDGTVQVNFYGDHTKLILSGWEPLLVTFVARNRSACTYLASHLRQLGCSPDLRQRLRYALRLLRDRSPA
B3: GST-Cdc5p PBD (Saccharomyces cerevisiae Cdc5p residues 357-705) (protein)
chain: EDIPEEQSLVNFKDCMEKSLLLESMSSDKIQRQKRDYISSIKSSIDKLEEYHQNRPFLPHSLSPGGTKQKYKEVVDIEAQRRLNDLAREARIRRAQQAVLRKELIATSTNVIKSEISLRILASECHLTLNGIVEAEAQYKMGGLPKSRLPKIKHPMIVTKWVDYSNKHGFSYQLSTEDIGVLFNNGTTVLRLADAEEFWYISYDDREGWVASHYLLSEKPRELSRHLEVVDFFAKYMKANLSRVSTFGREEYHKDDVFLRRYTRYKPFVMFELSDGTFQFNFKDHHKMAISDGGKLVTYISPSHESTTYPLVEVLKYGEIPGYPESNFREKLTLIKEGLKQKSTIVTVD
B4: GST-PTIP tandem BRCT domains (residues 550-757) (protein)
chain: TPELTPFVLFTGFEPVQVQQYIKKLYILGGEVAESAQKCTHLIASKVTRTVKFLTAISVVKHIVTPEWLEECFRCQKFIDEQNYILRDAEAEVLFSFSLEESLKRAHVSPLFKAKYFYITPGICPSLSTMKAIVECAGGKVLSKQPSFRKLMEHKQNSSLSEIILISCENDLHLCREYFARGIDVHNAEFVLTGVLTQTLDYESYKFN
B5: GST-BRCA1 tandem BRCT domains (residues 1634-1863) (protein)
chain: REKPELTASTERVNKRMSMVVSGLTPEEFMLVYKFARKHHITLTNLITEETTHVVMKTDAEFVCERTLKYFLGIAGGKWVVSYFWVTQSIKERKMLNEHDFEVRGDVVNGRNHQGPKRARESQDRKIFRGLEICCYGPFTNMPTDQLEWMVQLCGASVVKELSSFTLGTGVHPIVVVQPDAWTEDNGFHAIGQMCEAPVVTREWVLDSVALYQCQELDTYLIPQIPHSHY

Tests used:
[1] = target: GST-Plk1 (full-length), prepared in SF9 cells (human)
[2] = target: degenerate peptide library MAXXXXSpTXXXXAKKK (SEQ ID NO: 48); test: GST-PBD on glutathione beads, oriented peptide library screening
[3] = target: degenerate peptide library MAXXXXpTPXXXXAKKK (SEQ ID NO: 46); test: as above
[4] = target: T1, BRCTtide-7pS, GAAYDI-pS-… (Artificial Sequence); test: isothermal titration calorimetry, peptide injected into GST-PTIP BRCT domains
[5] = target: T2, BRCTtide-7pT, GAAYDI-pT-… (Artificial Sequence); test: as above
[6] = target: degenerate peptide library GAXXXXpSXXFXXAYKKK (SEQ ID NO: 59); test: GST-(BRCT)2 on glutathione beads, soluble degenerate library, Edman sequencing of bound peptides
[7] = target: degenerate peptide library Met-Ala-X-X-X-X-pSer-X-X-X-X-X-Ala-Lys-Lys-Lys (SEQ ID NO: 58); test: as above
[8] = target: degenerate peptide library GAXXXB(pS/pT)QJXXXAKKK (SEQ ID NO: 62); test: as above
[9] = target: degenerate peptide library MAXXXXpTXXXXAKKK (SEQ ID NO: 47); test: as above
[10] = target: T1, BRCTtide-7pS, GAAYDI-pS-… (Artificial Sequence); test: isothermal titration calorimetry, peptide injected into GST-BRCA1 BRCT domains

Binder | selectivity ratio, Pro at pThr+1 [2] | selectivity ratio, Ser at pThr-1 [3] | selectivity ratio, Phe at pSer+3 [7] | selectivity ratio, Phe at (pSer/pThr)+3 [8] | other results
MAGPMQS[pT]PLNGAKK [PoloBoxtide-optimal, MAGPMQ-S-pT-P-LNGAKK] | – | – | – | – | Plk1 kinase activity towards casein (32P incorporation, SDS-PAGE/autoradiography) [1]: 2.6 fold
B1 | 1.7 | 7.5 | – | – | –
B2 | 1.6 | 3 | – | – | –
B3 | 1.4 | 5.3 | – | – | –
B4 | – | – | 2.3 | 7 | Kd [4]: 280 nM; Kd [5]: 14300 nM; selectivity ratio, Ile at pSer+5 [6]: 1.9; selectivity ratio, Ile at pThr-1 [9]: 2.1
B5 | – | – | 2.4 | 7.5 | Kd [10]: 400 nM; selectivity ratio, Phe at pSer+1 [6]: 2.1; selectivity ratio, Phe at pThr+3 [9]: 1.9
